Source: US20060210549

How the values were obtained:
[1] = tested on: P1, H2N-GPQGIAGQR(GPO)4GG-OH
[2] = tested on: lipopeptide LP1, CH3(CH2)16COHN-GPQGIAGQR(GPO)4GG-OH

recombinant form of human MMP-9, containing the catalytic and fibronectin domains of the enzyme, sequence (chain, as listed by the source): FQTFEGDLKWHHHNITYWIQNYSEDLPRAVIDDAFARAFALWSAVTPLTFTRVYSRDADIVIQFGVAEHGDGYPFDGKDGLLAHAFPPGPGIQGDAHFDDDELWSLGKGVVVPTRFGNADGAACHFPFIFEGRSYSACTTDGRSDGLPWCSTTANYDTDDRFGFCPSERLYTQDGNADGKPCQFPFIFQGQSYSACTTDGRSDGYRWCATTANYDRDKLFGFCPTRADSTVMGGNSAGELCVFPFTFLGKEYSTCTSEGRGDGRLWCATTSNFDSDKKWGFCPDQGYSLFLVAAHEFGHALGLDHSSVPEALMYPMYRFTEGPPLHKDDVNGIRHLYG
trypsin, sequence (P00760 24-246): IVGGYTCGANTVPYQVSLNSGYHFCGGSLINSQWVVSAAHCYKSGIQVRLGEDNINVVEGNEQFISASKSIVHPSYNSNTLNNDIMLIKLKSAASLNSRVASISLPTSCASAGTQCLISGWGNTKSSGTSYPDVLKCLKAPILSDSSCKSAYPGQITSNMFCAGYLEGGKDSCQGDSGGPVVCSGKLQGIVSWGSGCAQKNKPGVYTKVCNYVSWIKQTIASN

Substance | cleavage of the peptide, products analyzed by RP-HPLC [1] | cleavage of the lipopeptide, products analyzed by RP-HPLC [2] | release of encapsulated carboxyfluorescein from LP1/DSPC liposomes (fluorescence at 518 nm, five hours) [2] | release of encapsulated carboxyfluorescein from LP1/DSPC liposomes (fluorescence at 518 nm) [2]
recombinant form of human MMP-9, containing the catalytic and fibronectin domains of the enzyme | The peptide P1 (Rpn=0.04) was efficiently cleaved by the target enzyme MMP-9 | the lipopeptide LP1 (Rpn=0.11) was partially cleaved by MMP-9 (in 2 hours, FIG. 2A) | In five hours, about 55% of the encapsulated dye was found to be released | 
trypsin | efficiently cleaved by the target enzyme MMP-9 as well as by a non-specific proteolytic enzyme, trypsin |  |  | trypsin, once again failed to release the dye from the liposome
